Measurements as given in patent US20140128287.

Target: GEV (Gal4 DBD - estrogen receptor - VP16) (synthetic construct) (UniProt P04386)
Assay: cell_activity
Settings: yeast reporter with three pairs of GEV sites, 15 min after beta-estradiol

Sequence of GEV (Gal4 DBD - estrogen receptor - VP16) (synthetic construct) (P04386 1-93): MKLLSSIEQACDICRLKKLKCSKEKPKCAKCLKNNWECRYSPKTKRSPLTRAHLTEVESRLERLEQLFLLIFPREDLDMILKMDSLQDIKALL

## CGGNNNNNNNNNNNCCG (double strand) [GAL1 promoter UASgal (Gal4 consensus site)]
  activity (fold induction of GFP transcripts): > 50
